Key:
[1] = molecular target: purified tubulin dimer; assay: SPR; VASH1 L226A/C169S
[2] = molecular target: purified tubulin dimer; assay: SPR

| Kd [1] | Kd [2] | Binder |
| --- | --- | --- |
| 2100 nM |  | VASH1-SVBP complex, VASH1 L226A (complex) chain 1: not shown chain 2: MDPPARKEKTKVKESVSRVEKAKQKSAQQELKQRQRAEIYALNRVMTELEQQQFDEFCKQMQPPGE |
|  | 320 nM | VASH1^44–315-SVBP^1–66 heterodimer (complex) chain 1: not shown chain 2: MDPPARKEKTKVKESVSRVEKAKQKSAQQELKQRQRAEIYALNRVMTELEQQQFDEFCKQMQPPGE |

Source: paper PMC6937246 (2019)
